Test results: patent US7256259 (WISCONSIN ALUMNI RESEARCH FOUNDATION, dated 2007)
Where no end group is shown, it is not given here. [ ]: non-standard residue; d: D form. The star is where a group is joined. Lys(N3) = [N-]=[N+]=NCCCC[C@H](N)C(=O)O; N3 = azido group, [N-]=[N+]=N*; PEG = not defined here

Biological target: T1, S-protein (UniProt P61823 47-150)
T1 construct: also called purified S-protein; commercial S-protein (Sigma Chemical)
T1 sequence (looked up): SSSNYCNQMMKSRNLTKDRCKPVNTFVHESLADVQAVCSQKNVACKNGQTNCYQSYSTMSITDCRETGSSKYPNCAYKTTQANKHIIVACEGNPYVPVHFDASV
Assay: S-protein incubated on a glass slide with immobilized azido-S15; detected by activity assay and immunostaining
Description: An amine-derivatized glass slide was treated with an excess of PEG having succinimidyl ester termini followed by diphenylphosphinomethanethiol resulting in a surface-bound phosphinothioester, as illustrated in Scheme 2. It is believed that the PEG layer (Mr) 3,400) prevented the non-specific attachment of protein to the glass surface. Serial dilutions of (N_3)Lys1 S15 and (N_3)Lys1 S15 were spotted on this phosphinothioester-derivatized slide. The peptide concentrations were 5.64 µM-56.4 pM for (N_3)Lys1 S15 and 4.38 µM-43.8 pM for (N_3)Lys1 S15. Afterwards, S-protein was spotted on the slide, which was washed with buffer. If S15 was successfully immobilized to the slide through the Staudinger ligation, the S-protein would bind to the immobilized S15 resulting in immobilized RNase S'.
Two types of assays were used to detect the presence of immobilized RNase S'. First, the ribonucleolytic activity of each spot was determined with a fluorogenic substrate. […]
RNase S' attached to the plate was visualized by immunostaining. […] RNase S' was detected by using a Fluorinate SI fluorescence scanner (Molecular Dynamics). (See FIG. 1A) The quantity of immobilized protein was determined with IMAGEQUANT densitometry software (Molecular Dynamics) and a standard curve generated by spotting various concentrations of Alexa Fluor® 488-conjugated secondary antibody.

[Lys(N3)]ETAAAKFERQHMDS (also called azido-S15) [(N3)Lys1 S15]
binding result: binds

B1: N3-PEG-S15 (peptide)
peptide: {N3-PEG}-KETAAAKFERQHMDS
modifications: reading uncertain
notes: Synthetic S15 (first 15 residues of S-peptide) carrying N3-PEG at its N-terminus; In the assay it was immobilized on a phosphinothioester-derivatized glass slide; also called azido-S15; azido-peptide (main-chain azide)
binding result: binds
